pKd: −log10 of the molar value. Where two headings read alike, the source gives them in different places.
Experiments:
[1] = molecular target: Aquifex aeolicus TatC (Aquifex aeolicus)
[2] = molecular target: Aquifex aeolicus TatC (Aquifex aeolicus); test: ITC

Tat signal peptide of the E. coli protein SufI, sequence (P26648 1-27 limits assumed): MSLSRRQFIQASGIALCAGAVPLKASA

stoichiometry N [1]	pKd [2]	stoichiometry N [2]	Substance
2			Aquifex aeolicus TatC (natural protein)
	5.52	1	Tat signal peptide of the E. coli protein SufI

— paper PMC3573685
